# Assay results reported in patent US20240117011A1 (US Dept. of Health and Human Services, published 2024).
# B1: A23-97.1 (antibody, V domains shown)
# VH: QVQLVESGGGVVQPGGSLRLSCAASGFTFSSFGMHWVRQAPGKGLEWVAFIRYDGSNKYYADSVKGRFTISRDNSKNTLYLQMNSLRAEDTAVYYCAKTELYYYDSSGPLGWGQGTLVTVSS
# VL: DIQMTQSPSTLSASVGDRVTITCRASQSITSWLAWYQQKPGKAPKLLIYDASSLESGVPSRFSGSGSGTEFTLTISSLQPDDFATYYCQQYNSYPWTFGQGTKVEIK
# B2: A23-113.1 (antibody, V domains shown)
# VH: QVHLEESGGAVVQPGRSLRLSCAASGFTFSSYGMHWVRQAPGKGLEWVAVISHDGSYKYYADSVKGRFTISRDNSKDTLYLQTNSLRAEDTAMYYCAKSYGYWMAYFDYWGQGTLVTVSS
# VL: DIQMTQSPSSLSASVGDRVTITCRASQDISNYLAWYQQKPGKVPKLLIYAASTLQSGVPSRFSGSGSGTDFTLTISSLQPEDVATYYCQKYNSPWHTFGGGTKVEIK
# B3: A20-36.1 (antibody, V domains shown)
# VH: QVQLVESGGGVVQPGRSLRLSCAASGFIFSSYGVHWVRQAPGKGLEWVAVIWHDESNKDYADSVKGRFTISRDNSKNTVYLQMNSLRAEDTAMYYCARDGYDFLTGAYELDYWGQGTLVTVSS
# VL: SYELTQPPSVSVSPGQTARITCSGDALPKQYAYWYQQKPGQAPVVVIYKDSERPSGIPERFSGSSSGTTVTLTISGVQAEDEADYYCQSADSSGTWVFGGGTKLTVL
# B4: A20-9.1 (antibody, V domains shown)
# VH: QVQLVESGGGVVQPGRSLRLSCAASGFTFSSYGMHWVRQAPGKGLEWVAFISYDGSNKYYADSVKGRFTISRDNSKNTLYLQMNSLRAEDTAVYYCAKDYWSVAAGTSWFDPWGQGTLVSVSS
# VL: B3 VL
# B5: A19-82.1 (antibody, V domains shown)
# VH: QVQLVESGGGVVQPGRSLRLSCVVSGLIFSTYDMHWVRQAPGKGLEWVAVISYDGSYKHYADSVKGRFTISRDSSKNTLYLQMNSLRPEDTAVYYCAKGEGVVAGTGKFDYWGQGTLVTVSS
# VL: SYVLTQPPSVSVAPGQTARITCGGNNIGSKSVHWYQQKPGQAPVLVVYDDSDRPSGIPERFSGSNSGNTATLTISRVEAGDEADYYCQVWDGSGDPWVFGGGTKLTVL
# B6: A19-61.1 (antibody, V domains shown)
# VH: QVQLVESGGGVVQPGRSLRLSCAASGFTFSSYAFHWVRQAPGKGLEWVAVISYDGSNQYYADSVKGRFTISRDNSKNTLYLQMNSLRADDTAVYYCARDLAIAVAGTWHYYNGMDVWGQGTTVTVSS
# VL: DIQMTQSPSSVSASVGDRVIITCRASQGISSWLAWYQQKPGKAPKVLIYDASSLQSGVPSRFSGSGYGTDFTLTISSLQPEDSATYYCQQAKSFPITFGQGTRLEIK
# B7: A23-80.1 (antibody, V domains shown)
# VH: QVQLVQSGAEVKKPGASVKVSCKASGYTFTSNGVTWVRQAPGQGLEWMGWISTYNGDTNYAQKLQGRVSMTTDTSTRTVYMELRSLRSDDTAVYYCARVGDAYCSGGSCYHFDYWGQGTLVTVSS
# VL: EIVMTQSPATLSVSPGERATLSCRASQSVSTNLAWYQQKPGQAPRLLIYGASTRATGIPARFSGSGSGTEFTLTISSLQSEDFALYYCQQYDNWPPEFTFGPGTKVDIK
# B8: A23-105.1 (antibody, V domains shown)
# VH: QVQLVESGGGVVQPGRSLRLSCAASGFTFSNYAIHWVRQAPGKGLEWVAVISYDGSNKYYADSVKGRFTISRDNSKNTLYLEMNSLRAEDMAVYYCARVGPYQYDSSAAFDIWGQGTMVTVSS
# VL: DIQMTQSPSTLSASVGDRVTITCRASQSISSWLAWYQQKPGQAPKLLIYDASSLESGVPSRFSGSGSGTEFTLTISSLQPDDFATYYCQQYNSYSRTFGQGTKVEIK
# B9: A19-1.1 (antibody, V domains shown)
# VH: QVQLVESGGGVVQPGRSLRLSCAASGFTFTNYAMHWVRQAPGKGLEWVAVISNDGSDKYYADSVKGRFTISRDNSKSTVYLQMSSLRPEDTAVYFCARDPPQVHWSLDYWGQGTLVTVSS
# VL: QSALTQPPSASGSPGQSVTISCTGTSSDVGDYNYVSWYQHHPGKAPKLIIYDVSKRPSGVPDRFSGSKSGDTASLTVSGLQAEDEADYYCSSYAGNNNAVFGTGTKVTVL
# B10: A20-29.1 (antibody, V domains shown)
# VH: EVQLVESGGGLVQPGRSLRLSCAASGFTFDDYAMHWVRQTPGKGLEWVSGISWNSGDIDYADSVKGRFTISRDNAKNSLYLQMNSLRTEDTALYYCTKGWFGEFFGAGSICDYWGQGTLVTVSS
# VL: EIVMTQSPATLSVSPGERATLSCRASQSVSNNLAWYQQKPGQAPRLLIYGASTRATGIPARFSGSGSGTEFTLTISSLQSEDFAVYYCQQYNNWPLFGQGTKVEIK
# B11: A19-46.1 (antibody, V domains shown)
# VH: QVQLVESGGGVVQPGRSLRLSCAASGFTLSSYGMHWVRQAPGKGLEWVAVISYDGSNKYYVDSVKGRFTISRDNSKNTLYLQMNSLRAEDTAVYYCARGWAYWELLPDYYYGMDVWGQGTTVTVSS
# VL: QTVVTQEPSFSVSPGGTVTLTCGLSSGSVSTAYFPSWYQQTPGQAPRTLIYGTNTRSSGVPDRFSGSILGNKAALTITGAQADDESDYYCVLYMGRGIVVFGGGTKLTVL
# B12: A19-30.1 (antibody, V domains shown)
# VH: QVQLVESGGGVVQPGRSLRLSCAASGFTFSNYGMHWVRQAPGKGLEWLAVISYDGSNKYYADSVKGRFTISRDNSKNTLFLQMNSLRAEDTAVYYCAKESQFGELFEALDYWGQGTLVTVSS
# VL: SYELTQPPSVSVSPGQTARITCSGDALPRKYAFWYQQKSGQAPVLVISEDSKRPSGIPERFSGSSSGTMATLTISGAQVEDEADYYCYSTDSSGNHRVFGGGTKLTVL
# Target: full-length SARS-CoV-2 spike, WA-1 / Wuhan-1 (S wt) (SARS-CoV-2, UniProt P0DTC2 14-1273)
# Experiment: cell-based or functional assay
Binder,pseudotyped virus neutralization IC50,pseudotyped virus neutralization IC80
B1,0.484 µg/mL,5.28 µg/mL
B2,0.393 µg/mL,7.81 µg/mL
B3,1.39 µg/mL,3.76 µg/mL
B4,1.21 µg/mL,–
B5,0.72 µg/mL,5.93 µg/mL
B6,0.0709 µg/mL,0.163 µg/mL
B7,0.321 µg/mL,–
B8,0.0889 µg/mL,0.228 µg/mL
B9,0.126 µg/mL,0.53 µg/mL
B10,0.348 µg/mL,1.36 µg/mL
B11,0.0398 µg/mL,0.129 µg/mL

# Target: SARS-CoV-2 RBD (SARS-CoV-2, UniProt P0DTC2 319-541)
# Experiment: ELISA
row,Binder,binding result
1,B3,no binding
2,B4,no binding
3,B12,binds

# Target: T1, SARS-CoV-2 S1 (SARS-CoV-2, UniProt P0DTC2 14-681)
# T1 construct: range 1-681
# Experiment: ELISA
row,Binder,binding result
1,B12,binds

# Target: SARS-CoV-2 NTD (SARS-CoV-2, UniProt P0DTC2 14-305)
# Experiment: ELISA
row,Binder,binding result
1,B1,no binding
2,B2,no binding
3,B3,no binding
4,B4,no binding
5,B5,no binding
6,B6,no binding
7,B7,no binding
8,B8,no binding
9,B9,no binding
10,B12,no binding
